Results on five sequences are retold here after the Immune Epitope Database (IEDB).

One assay addresses HLA-C*07:02. Kind of assay: IEDB peptide-MHC binding, purified MHC/direct/fluorescence; filed as Kd, often an IC50 or EC50 that approximates it; ≥ and ≤ were set here for values at or beyond the usual limits of such assays. Particulars: source organism: Homo sapiens.
Another assay concerns the target HLA-B*73:01. The assay is described as above. As to conditions: source organism: Homo sapiens.
The target in another assay is HLA-B*15:09. As to the kind of experiment: IEDB peptide-MHC binding, purified MHC/competitive/fluorescence; filed as Kd, often an IC50 or EC50 that approximates it; ≥ and ≤ were set here for values at or beyond the usual limits of such assays.
Another assay has as its target HLA-B*40:01. Kind of assay: IEDB peptide-MHC binding, purified MHC/direct/fluorescence; filed as Kd, often an IC50 or EC50 that approximates it; ≥ and ≤ were set here for values at or beyond the usual limits of such assays.
Another assay concerns the target HLA-A*26:01. The description is as above. As to conditions: source organism: Ravn virus - Ravn, Kenya, 1987.
The next assay deals with HLA-B*07:02. The description is as above.
Another assay has as its target HLA-B*15:17. The assay is described as above.
The target in another assay is HLA-A*02:01. The assay is described as above.
For another assay, the target named is HLA-A*11:01. The assay is described as above.
In a further assay the target is HLA-A*31:01. Described as above.
Assay [1] has as its target HLA-B*48:01. Described as above.
The target in another assay is HLA-B*58:01. Described as above.
The next assay has as its target HLA-A*01:01. Described as above.
In a further assay the target is HLA-B*18:01. The description is as above.
Another assay deals with HLA-B*57:01. The assay is described as above.
The target in another assay is HLA-A*68:02. Described as above. Particulars: source organism: Marburg virus - Musoke, Kenya, 1980.
For the next assay, the target named is HLA-A*69:01. Described as above.
A further assay concerns the target HLA-B*08:01. Described as above. Particulars: source organism: Ravn virus - Ravn, Kenya, 1987.
In the next assay the target is HLA-B*44:02. Described as above. Particulars: source organism: Marburg virus - Musoke, Kenya, 1980.
The next assay concerns the target HLA-B*27:05. The description is as above.
A further assay concerns the target HLA-B*40:02. As to the kind of experiment: IEDB peptide-MHC binding, cellular MHC/competitive/fluorescence; ≥ and ≤ were set here for values at or beyond the usual limits of such assays. Particulars: source organism: Homo sapiens.
Another assay addresses HLA-B*39:01. As to the kind of experiment: IEDB peptide-MHC binding, purified MHC/competitive/fluorescence; filed as Kd, often an IC50 or EC50 that approximates it; ≥ and ≤ were set here for values at or beyond the usual limits of such assays. As to conditions: source organism: Mycobacterium tuberculosis variant bovis BCG str. Pasteur 1173P2.
Another assay addresses HLA-B*46:01. As to the kind of experiment: IEDB peptide-MHC binding, purified MHC/direct/fluorescence; filed as Kd, often an IC50 or EC50 that approximates it; ≥ and ≤ were set here for values at or beyond the usual limits of such assays. As to conditions: source organism: Mycobacterium tuberculosis.
In a further assay the target is HLA-B*15:01. The description is as above. As to conditions: source organism: Mycobacterium tuberculosis.
For the next assay, the target named is HLA-A*03:01. The assay is described as above. Particulars: source organism: Mycobacterium tuberculosis.
A further assay concerns the target HLA-B*38:01. The assay is described as above. Particulars: source organism: Mycobacterium tuberculosis str. Haarlem.
The target of another assay is HLA-B*51:01. Described as above. As to conditions: source organism: Mycobacterium tuberculosis.
Assay [2] has as its target HLA-B*48:01. As to the kind of experiment: IEDB peptide-MHC binding, purified MHC/competitive/fluorescence; filed as Kd, often an IC50 or EC50 that approximates it; ≥ and ≤ were set here for values at or beyond the usual limits of such assays. Particulars: source organism: Vibrio vulnificus CMCP6.
The target in the next assay is HLA-C*15:02. Kind of assay: IEDB peptide-MHC binding, purified MHC/direct/fluorescence; filed as Kd, often an IC50 or EC50 that approximates it; ≥ and ≤ were set here for values at or beyond the usual limits of such assays. Particulars: source organism: Vibrio vulnificus CMCP6.
The mark [3] stands for this setting: source organism: Marburg virus - Musoke, Kenya, 1980.
Where [4] appears, read: source organism: Mycobacterium tuberculosis.

For FPLWWVSSI, the Kd with HLA-C*07:02 was 2.3 µM; with HLA-B*73:01, not below 20 µM.

With AEILSGRVI, the Kd is not below 20 µM with HLA-B*15:09 (source organism: Orthomarburgvirus marburgense); 0.0055 µM in the assay with HLA-B*40:01 (setting [3]); not below 20 µM with HLA-A*26:01; not below 20 µM with HLA-B*07:02 (setting [3]); not below 20 µM with HLA-B*15:17 (setting [3]); not below 20 µM in the assay with HLA-A*02:01 (setting [3]). The Kd was not below 20 µM with HLA-A*11:01 (setting [3]); not below 20 µM with HLA-A*31:01 (setting [3]); not below 20 µM with HLA-B*48:01 [1] (setting [3]); not below 20 µM in the assay with HLA-B*58:01 (setting [3]); not below 20 µM in the assay with HLA-A*01:01 (setting [3]); 16.7 µM in the assay with HLA-B*18:01 (setting [3]). The Kd in the assay with HLA-B*57:01 (setting [3]) is not below 20 µM; with HLA-A*68:02 it was not below 20 µM; with HLA-A*69:01 (setting [3]), not below 20 µM; with HLA-B*08:01, not below 20 µM; in the assay with HLA-B*44:02, not below 21 µM; with HLA-B*27:05 (setting [3]), not below 20 µM.

In the assay with HLA-B*40:02, SEFSDVDKL registered an IC50 of 1.4 µM.

For the sequence GPASLPTAL, the Kd with HLA-B*15:09 (source organism: Mycobacterium tuberculosis variant bovis BCG str. Pasteur 1173P2) is not below 20 µM; with HLA-B*39:01, 0.679 µM; with HLA-B*40:01 (setting [4]), not below 20 µM; with HLA-B*07:02 (setting [4]) it was 0.0413 µM; with HLA-B*15:17 (setting [4]), not below 20 µM; with HLA-A*02:01 (setting [4]) it was not below 20 µM. The Kd is not below 20 µM in the assay with HLA-A*11:01 (setting [4]); not below 20 µM with HLA-B*46:01; not below 20 µM in the assay with HLA-A*31:01 (setting [4]); 2.82 µM with HLA-B*48:01 [1] (setting [4]); not below 20 µM with HLA-B*58:01 (setting [4]); not below 20 µM with HLA-B*15:01. Moreover, the Kd with HLA-A*01:01 (setting [4]) is not below 20 µM; with HLA-A*03:01, not below 20 µM; with HLA-B*18:01 (setting [4]) it was not below 20 µM; in the assay with HLA-B*57:01 (setting [4]) it was not below 20 µM; in the assay with HLA-B*38:01 it was not below 20 µM; with HLA-A*69:01 (setting [4]), 1.24 µM. The Kd with HLA-B*51:01 and with HLA-B*27:05 (setting [4]) was not below 20 µM in each case.

Regarding RIHDIAVQL, the results for the Kd in the assay with HLA-B*48:01 [2] and with HLA-C*15:02 were 0.111 µM and 0.196 µM, respectively.
